Data: publication PMC8391104, “Molecular mechanism of Mad1 kinetochore targeting by phosphorylated Bub1” (EMBO Reports, 2021)
Positions count from the first letter of the chain named. In names and notes the source's numbering stands.

B1: S459A: Bub1 S459A mutation (protein, UniProt O43683 1-1085, looked up, variant S459A)
Mitotic checkpoint …: MDTPENVLQMLEAHMQSYKGNDPLGEWERYIQWVEENFPENKEYLITLLEHLMKEFLDKKKYHNDPRFISYCLKFAEYNSDLHQFFEFLYNHGIGTLSSPLYIAWAGHLEAQGELQHASAVLQRGIQNQAEPREFLQQQYRLFQTRLTETHLPAQARTSEPLHNVQVLNQMITSKSNPGNNMACISKNQGSELSGVISSACDKESNMERRVITISKSEYSVHSSLASKVDVEQVVMYCKEKLIRGESEFSFEELRAQKYNQRRKHEQWVNEDRHYMKRKEANAFEEQLLKQKMDELHKKLHQVVETSHEDLPASQERSEVNPARMGPSVGSQQELRAPCLPVTYQQTPVNMEKNPREAPPVVPPLANAISAALVSPATSQSIAPPVPLKAQTVTDSMFAVASKDAGCVNKSTHEFKPQSGAEIKEGCETHKVANTSSFHTTPNTSLGMVQATPSKVQPAPTVHTKEALGFIMNMFQAPTLPDISDDKDEWQSLDQNEDAFEAQFQKNVRSSGAWGVNKIISSLSSAFHVFEDGNKENYGLPQPKNKPTGARTFGERSVSRLPSKPKEEVPHAEEFLDDSTVWGIRCNKTLAPSPKSPGDFTSAAQLASTPFHKLPVESVHILEDKENVVAKQCTQATLDSCEENMVVPSRDGKFSPIQEKSPKQALSSHMYSASLLRLSQPAAGGVLTCEAELGVEACRLTDTDAAIAEDPPDAIAGLQAEWMQMSSLGTVDAPNFIVGNPWDDKLIFKLLSGLSKPVSSYPNTFEWQCKLPAIKPKTEFQLGSKLVYVHHLLGEGAFAQVYEATQGDLNDAKNKQKFVLKVQKPANPWEFYIGTQLMERLKPSMQHMFMKFYSAHLFQNGSVLVGELYSYGTLLNAINLYKNTPEKVMPQGLVISFAMRMLYMIEQVHDCEIIHGDIKPDNFILGNGFLEQDDEDDLSAGLALIDLGQSIDMKLFPKGTIFTAKCETSGFQCVEMLSNKPWNYQIDYFGVAATVYCMLFGTYMKVKNEGGECKPEGLFRRLPHLDMWNEFFHVMLNIPDCHHLPSLDLLRQKLKKVFQQHYTNKIRALRNRLIVLLLECKRSRK
B2: F629A: Mad1 F629A mutant (protein, UniProt Q9Y6D9 1-718, looked up, variant F629A)
Mitotic spindle assembly …: MEDLGENTMVLSTLRSLNNFISQRVEGGSGLDISTSAPGSLQMQYQQSMQLEERAEQIRSKSHLIQVEREKMQMELSHKRARVELERAASTSARNYEREVDRNQELLTRIRQLQEREAGAEEKMQEQLERNRQCQQNLDAASKRLREKEDSLAQAGETINALKGRISELQWSVMDQEMRVKRLESEKQELQEQLDLQHKKCQEANQKIQELQASQEARADHEQQIKDLEQKLSLQEQDAAIVKNMKSELVRLPRLERELKQLREESAHLREMRETNGLLQEELEGLQRKLGRQEKMQETLVGLELENERLLAKLQSWERLDQTMGLSIRTPEDLSRFVVELQQRELALKDKNSAVTSSARGLEKARQQLQEELRQVSGQLLEERKKRETHEALARRLQKRVLLLTKERDGMRAILGSYDSELTPAEYSPQLTRRMREAEDMVQKVHSHSAEMEAQLSQALEELGGQKQRADMLEMELKMLKSQSSSAEQSFLFSREEADTLRLKVEELEGERSRLEEEKRMLEAQLERRALQGDYDQSRTKVLHMSLNPTSVARQRLREDHSQLQAECERLRGLLRAMERGGTVPADLEAAAASLPSSKEVAELKKQVESAELKNQRLKEVFQTKIQEARKACYTLTGYQIDITTENQYRLTSLYAEHPGDCLIFKATSPSGSKMQLLETEFSHTVGELIEVHLRRQDSIPAFLSSLTLELFSRQTVA
B3: R630A: Mad1 R630A mutant (protein, UniProt Q9Y6D9 1-718, looked up, variant R630A)
Mitotic spindle assembly …: B2 Mitotic spindle assembly … with A629F, R630A

Assays:
kinetochore = conditions: cited from earlier work; for kinetochore targeting of F629A / R630A mutants, in words: ref Ji et al, 2017b
Source text: Formation of the Bub1‐Mad1 complex at kinetochores is dependent on phosphorylation of Bub1, a targeting mechanism conserved from yeast to humans (Heinrich et al, [2014]; London & Biggins, [2014a]; Silió et al, [2015]). In S. cerevisiae, phosphorylation of Bub1 at Thr453 and Thr455 by Mps1 promotes an interaction with Mad1^CTD, with pThr455 alone being sufficient for this interaction (London & Biggins, [2014a]; Ji et al, [2017b]). […] Phe629 is a buried hydrophobic residue which contacts Phe629 of the opposite subunit and therefore contributes to the hydrophobic dimerization interface of Mad1^CTD. Phe629 also contributes to the hydrophobic interface of the Bub1^CD1‐Mad1^CTD complex by stacking with Bub1 Phe475 (Fig 3B). […] However, we suspect this could be linked to disruption of the Mad1 conformation sinc ...

[1] = Aggregation of Mad1^CTD mutants; type: physicochemical; conditions: purified Mad1^CTD mutant
Source text: The coding region of Mad1^597–719 was cloned by USER® (NEB) into a modified pRSFDuet‐1 vector (71341‐3, Sigma‐Aldrich) with an N‐terminal double Strep His6‐tag, followed by a tobacco etch virus (TEV) protease cleavage site (Demple & Linn, [1982]; Bitinaite et al, [1992]). Mad1 mutants were generated using the QuikChange™ Lightning Site‐Directed Mutagenesis Kit (Agilent), developed by Stratagene Inc. (La Jolla, CA) (Nøhr & Kristiansen, [2003]). Mad1 constructs were transformed into Rosetta™ 2 (DE3) Singles™ Competent Cells (71400, Novagen) for expression. Expression was induced with 0.5 mM IPTG and grown overnight at 18°C. Cells were lysed in 25 mM HEPES pH 8.1, 250 mM NaCl, 2 mM DTT, 5% glycerol, 2 mM EDTA supplemented with lysozyme, and Complete™ EDTA‐free protease inhibitors (Roche). Proteins were purified over a Strep‐Tactin Superflow Plus column (QIAGEN) and cleaved with TEV protease overnight at 4°C. […]
Size exclusion chromatography coupled with multi‐angle static light scattering (SEC‐MALS) was performed using an Agilent 1200 series LC system with an online Dawn Helios ii system (Wyatt) equipped with a QELS+ module (Wyatt) and an Optilab rEX differential refractive index detector (Wyatt). […] The molecular masses were analysed with ASTRA 7.3.0.11 (Wyatt). […]

Molecule	Mad1 kinetochore recruitment by Bub1 S459A, in words (kinetochore; ref Zhang et al, 2017)	kinetochore targeting of F629A / R630A mutants, in words (kinetochore)	aggregation, in words [1]
B1	inactivates Bub1‐mediated Mad1 kinetochore recruitment	–	–
B2	–	defective in kinetochore targeting	had a propensity to aggregate
B3	–	defective in kinetochore targeting	–
